For orientation: koff means the rate constant with which the complex falls apart. One may read the kon as a measure of how fast the partners come together. By Kd is commonly meant the constant that tells how readily two partners part at equilibrium.

The target in assay [1] is T1, Recombinant Human DLL4 (delta-like protein 4) (human, UniProt Q9NR61 27-524).
T1 construct: Bought recombinant protein (R&D Systems Cat#1506-D4/CF); also called rHuman DLL4
The assay can be described thus: ECL (MSD) multispot binding assay; value equals DLL4 signal over blank of Table 91.

In assay [2] the target is T1, Recombinant Human DLL4 (delta-like …). The assay can be described thus: ECL (MSD) multispot assay, antigen spotted; blank spot of this row 424.
The target of another assay is T2, rHuman CD44/Fc Chimera (human, UniProt P16070 21-220).
T2 construct: not shown: Fc of the bought R&D Systems chimera
The assay is described as above.

A further assay deals with T3, rHuman EGF R/Fc Chimera (human, UniProt P00533 25-645).
T3 construct: not shown: Fc of the bought R&D Systems chimera
The assay is described as above.

For assay [3], the target named is T4, rHuman P-Cadherin/Fc Chimera (human, UniProt P22223 108-654).
T4 construct: R&D Systems Cat#861-PC; not shown: Fc of the bought R&D Systems chimera
The assay is described as above.

Assay [4] addresses T5, rHuman Notch-1/Fc Chimera (human, UniProt P46531 19-526).
T5 construct: R&D Systems Cat#3647-TK; not shown: Fc of the bought R&D Systems chimera
Described as above.

A further assay has as its target T6, rHuman ErbB2/Fc Chimera (human, UniProt P04626 23-652).
T6 construct: not shown: Fc of the bought R&D Systems chimera
The description is as above.

Assay [5] concerns the target T7, rHuman Erythropoietin R/Fc Chimera (human, UniProt P19235 25-250).
T7 construct: also called EPO R; EPO R/Fc; not shown: Fc of the bought R&D Systems chimera
T7 sequence (looked up): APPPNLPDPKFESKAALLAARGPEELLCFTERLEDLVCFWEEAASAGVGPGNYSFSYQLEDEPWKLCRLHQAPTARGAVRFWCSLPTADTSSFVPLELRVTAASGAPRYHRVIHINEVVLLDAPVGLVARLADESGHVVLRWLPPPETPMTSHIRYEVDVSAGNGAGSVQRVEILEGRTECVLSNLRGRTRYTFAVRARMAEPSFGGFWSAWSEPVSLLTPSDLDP
The assay is described as above.

The target in assay [6] is T1, Recombinant Human DLL4 (delta-like …). The assay can be described thus: ELISA, DLL4 coated on plate.
In assay [7] the target is T8, Recombinant Human DLL4 (delta-like protein 4) (human, UniProt Q9NR61 27-524).
T8 construct: Bought recombinant protein; also called rHuman DLL4; Delta-like 4
The assay can be described thus: SPR, Fab on recombinant human DLL4; column head x10^-3 applied as printed, but KD x ka implies 0.0717 s^-1 unscaled; (±0.00351) at r15c4.

Assay [8] has as its target T8, Recombinant Human DLL4 (delta-like …). The assay can be described thus: SPR, Fab on recombinant human DLL4; column head x10^5 applied; (±6.24) at r15c3. Background: SPR reads the build-up and loss of mass on a sensor chip optically.
The target is the same in assay [9]. The assay can be described thus: SPR, Fab on recombinant human DLL4; (±8.5) at r15c5.
Assay [10] addresses T9, Recombinant Human DLL4 (R&D Systems Cat#1506-D4/CF) (human, UniProt Q9NR61 27-524).
T9 construct: Bought recombinant human DLL4 coated on the ECL plate; also called delta-like protein 4; Delta-like 4
The assay can be described thus: ECL (MSD) binding assay, DLL4 coated on plate, Fab 0.04 uM.

The target in assay [11] is T10, Recombinant Human DLL4 (delta-like protein 4) (human, UniProt Q9NR61 27-524).
T10 construct: also called rHuman DLL4; Delta-like 4
The assay can be described thus: ECL (MSD) binding assay, Fab on immobilised recombinant human DLL4.

In assay [12] the target is T10, Recombinant Human DLL4 (delta-like …). The assay can be described thus: ELISA, Fab on plate-coated recombinant human DLL4. On the technique in general: In an ELISA, binding on a coated surface is turned into a signal by an enzyme label.
For assay [13], the target named is T11, rHuman Erythropoietin R/Fc Chimera, CF (R&D Systems Cat#963-ER) (human, UniProt P19235 25-250).
T11 construct: Bought recombinant protein; also called EPO R; EPO R/Fc; Fc part of the bought chimera not given
T11 sequence (looked up): T7 sequence (looked up)
The assay can be described thus: ECL multispot (MSD) binding assay, antigen spotted on plate, Fab 0.04 uM.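 Also: purified Fab incubated 1 h at 20 °C on antigen spots, detected via TAG-labelled antibody, ECL read against each well's blank, with signal-to-blank of at least 4 scored as binder.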

Assay [14] addresses T12, rHuman ErbB2/Fc Chimera, CF (R&D Systems Cat#1129-ER) (human, UniProt P04626 23-652).
T12 construct: Bought recombinant protein; also called human epidermal growth factor 2 receptor; Fc part of the bought chimera not given
Described as above.

Assay [15] concerns the target T13, Recombinant Human DLL4 (R&D Systems Cat#1506-D4/CF) (human, UniProt Q9NR61 27-524).
T13 construct: Bought recombinant protein; also called delta-like protein 4; rHuman DLL4
The description is as above.

The target of assay [16] is T14, rHuman CD44/Fc Chimera, CF (R&D Systems Cat#3660-CD) (human, UniProt P16070 21-220).
T14 construct: Bought recombinant protein; Fc part of the bought chimera not given
The assay is described as above.

In assay [17] the target is T15, rHuman Notch-1/Fc Chimera, CF (R&D Systems Cat#3647-TK) (human, UniProt P46531 19-526).
T15 construct: Bought recombinant protein; Fc part of the bought chimera not given
The assay is described as above.

For assay [18], the target named is T16, rHuman EGF R/Fc Chimera, CF (R&D Systems Cat#344-ER) (human, UniProt P00533 25-645).
T16 construct: Bought recombinant protein; also called epidermal growth factor receptor; Fc part of the bought chimera not given
Described as above.

Assay [19] deals with T17, rHuman IGF-1 sR, CF (R&D Systems Cat#391-GR) (human, UniProt P08069 31-932).
T17 construct: Bought recombinant soluble receptor; also called insulin-like growth factor-1 soluble receptor
The assay is described as above.

Assay [20] deals with T18, rHuman HGF R/c-MET/Fc Chimera, CF (R&D Systems Cat#358-MT/CF) (human, UniProt P08581 25-932).
T18 construct: Bought recombinant protein; also called HGF R/Fc; hepatocyte growth factor receptor; Fc part of the bought chimera not given
The description is as above.

For assay [21], the target named is T19, rHuman P-Cadherin/Fc Chimera, CF (R&D Systems Cat#861-PC) (human, UniProt P22223 108-654).
T19 construct: Bought recombinant protein; Fc part of the bought chimera not given
The assay is described as above.

Assay [22] concerns the target T8, Recombinant Human DLL4 (delta-like …). The assay can be described thus: SPR, Fab on recombinant human DLL4; column head x10^-3 applied as printed, but KD x ka implies 0.023 s^-1 unscaled; (±0.004) at r11c4.
Assay [23] shares this target. The assay can be described thus: SPR, Fab on recombinant human DLL4; (±7) at r11c5.
For assay [24] the target is unchanged. The assay can be described thus: SPR, Fab on recombinant human DLL4; column head x10^5 applied; (±0.092) at r11c3.
Assay [25] shares this target. The assay can be described thus: SPR, Fab on recombinant human DLL4; (±200) printed at r9c5; ka and kd printed n/a.
For assay [26] the target is unchanged. The assay can be described thus: SPR, Fab on recombinant human DLL4; column head x10^5 applied; (±4.16) at r18c3.
The target is the same in assay [27]. The assay can be described thus: SPR, Fab on recombinant human DLL4; (±9.3) at r18c5.
For assay [28] the target is unchanged. The assay can be described thus: SPR, Fab on recombinant human DLL4; column head x10^-3 applied as printed, but KD x ka implies 0.101 s^-1 unscaled; (±0.0153) at r18c4.
Assay [29] has the same target. The assay can be described thus: SPR, Fab on recombinant human DLL4; (±6) at r13c5.
The target is the same in assay [30]. The assay can be described thus: SPR, Fab on recombinant human DLL4; column head x10^5 applied; (±0.6) at r13c3.
The target is the same in assay [31]. The assay can be described thus: SPR, Fab on recombinant human DLL4; column head x10^-3 applied as printed, but KD x ka implies 0.0845 s^-1 unscaled; (±0.0050) at r13c4.

Numbering of substitutions follows the chain as printed. Names may count otherwise.

T18 sequence (P08581 25-932, change not shown): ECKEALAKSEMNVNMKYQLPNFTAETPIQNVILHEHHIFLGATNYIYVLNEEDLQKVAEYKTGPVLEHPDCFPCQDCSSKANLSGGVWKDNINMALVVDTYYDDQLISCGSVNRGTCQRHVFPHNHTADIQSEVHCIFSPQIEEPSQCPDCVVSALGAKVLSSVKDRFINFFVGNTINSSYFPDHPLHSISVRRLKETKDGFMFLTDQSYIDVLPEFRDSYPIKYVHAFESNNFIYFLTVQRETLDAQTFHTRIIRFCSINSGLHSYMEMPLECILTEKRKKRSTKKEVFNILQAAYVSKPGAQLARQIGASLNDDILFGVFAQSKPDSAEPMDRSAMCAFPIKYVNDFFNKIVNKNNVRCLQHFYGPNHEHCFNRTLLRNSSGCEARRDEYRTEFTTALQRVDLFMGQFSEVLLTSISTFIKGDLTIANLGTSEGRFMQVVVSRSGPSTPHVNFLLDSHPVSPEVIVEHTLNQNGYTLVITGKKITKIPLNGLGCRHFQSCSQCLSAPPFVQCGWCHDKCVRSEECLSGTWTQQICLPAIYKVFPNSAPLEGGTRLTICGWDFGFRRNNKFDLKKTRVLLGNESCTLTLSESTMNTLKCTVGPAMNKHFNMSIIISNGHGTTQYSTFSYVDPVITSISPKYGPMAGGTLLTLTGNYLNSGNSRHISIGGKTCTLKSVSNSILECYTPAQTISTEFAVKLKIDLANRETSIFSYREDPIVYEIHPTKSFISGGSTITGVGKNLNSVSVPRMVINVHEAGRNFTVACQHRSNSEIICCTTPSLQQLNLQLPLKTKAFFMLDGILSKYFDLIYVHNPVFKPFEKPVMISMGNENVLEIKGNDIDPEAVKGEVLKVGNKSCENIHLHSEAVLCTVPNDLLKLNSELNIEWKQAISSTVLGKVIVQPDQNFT

B1: Fab VH5-51_IGHD5-18*01>3_IGHJ4*01 G100K/G104T & V3-4_IGLJ1*01 (Fab, V domains shown)
VH: EVQLVQSGAEVKKPGESLKISCKGSGYSFTSYWIGWVRQMPGKGLEWMGIIYPGDSDTRYSPSFQGQVTISADKSISTAYLQWSSLKASDTAMYYCARRKYSYTYDYFDYWGQGTLVTVSS
VL: QTVVTQEPSFSVSPGGTVTLTCGLSSGSVSTSYYPSWYQQTPGQAPRTLIYSTNTRSSGVPDRFSGSILGNKAALTITGAQADDESDYYCVLYMGSGISYVFGTGTKVTVL
notes: Fab made in E. coli (heavy chain vector with CH1, His6 and Flag tags; lambda CL vector); also called KT; H:KT
Regarding B1, in assay [1], the ECL signal-to-blank ratio was determined as 85.9. For the same molecule, the ECL signal in [2] was found to be 36400; with rHuman CD44/Fc Chimera, 579; with rHuman EGF R/Fc Chimera it was 852; in assay [3], 319; in assay [4], 543; with rHuman ErbB2/Fc Chimera, 1100. In [5], the ECL signal was 554. Besides, the “ELISA (Signal-Noise)” value in assay [6] is 0.

B2: Fab VH5-51_IGHD5-18*01>3_IGHJ4*01 G100K/G104T G24T/S28R/G35V & V3-4_IGLJ1*01 (Fab, V domains shown)
VH: B1 VH with G24T, S28R, G35V
VL: B1 VL
notes: Fab made in E. coli; VH was cloned in Plasmid A (CH1, His6 and Flag tags) and VL in Plasmid E (lambda CL); also called KT TRV; H:KT TRV & L:wt
For B2, the off-rate constant (koff) in [7] amounted to 7.17e-05 s⁻¹. The association rate constant (kon) in assay [8] was 2.09e+06 M⁻¹ s⁻¹. For the same molecule, the Kd in assay [9] was found to be 36.2 nM.

B3: Fab VH5-51_IGHD5-18*01>3_IGHJ3*01 & V3-4_IGLJ1*01 (Fab, V domains shown)
VH: B1 VH with K100G, T104G, Y107A, Y110V
VL: B1 VL
notes: Fab; the JH germline segment IGHJ4*01 of the parent is swapped for IGHJ3*01; Constant parts come from Plasmid A (CH1, His6, Flag) and Plasmid E (lambda CL); also called J-swap mutant IGHJ3*01
As to B3, the Signal/Noise in assay [10] is 3.1.

B4: Fab VH5-51_IGHD5-18*01>3_IGHJ4*01 G100K/G104T (H:KT) & V3-4_IGLJ1*01 G23R (Fab, V domains shown)
VH: B1 VH
VL: B1 VL with G23R
notes: Fab (CH1 with His6/Flag tags from Plasmid A, lambda CL from Plasmid E); also called G100K/G104T & G23R
Turning to B4, the “ECL signal” value in [11] is 68200. Besides, the “ELISA signal” value in assay [12] stood at 0.11.

B5: Fab VH5-51_IGHD5-18*01>3_IGHJ4*01 G100K/G104T (H:KT) & V3-4_IGLJ1*01 I98A (Fab, V domains shown)
VH: B1 VH
VL: B1 VL with I98A
notes: Fab; Expressed from Plasmid A (CH1, His6 and Flag tags) and Plasmid E (lambda CL); also called KT & I98A
For B5, the ECL signal in assay [13] was 584; in [14], 1380; in [15], 15100; in assay [16], 708; in assay [17] it was 700; in [18], 1050. Moreover, the figures for the ECL signal in assay [19], in assay [20] and in assay [21] were 1100, 1230 and 359, respectively.

B6: Fab VH5-51_IGHD5-18*01>3_IGHJ4*01 G100K/G104T & V3-4_IGLJ1*01 (Fab, V domains shown)
VH: B1 VH
VL: B1 VL
notes: Fab made in E. coli; VH was cloned in Plasmid A (CH1, His6 and Flag tags) and VL in Plasmid E (lambda CL); also called KT; H:KT & L:wt
On to B6, for which the koff in assay [22] is 2.3e-05 s⁻¹. Further, the equilibrium dissociation constant (Kd) in [23] was found to be 355 nM. Moreover, the kon in assay [24] turned out to be 64500 M⁻¹ s⁻¹.

B7: Fab VH5-51_IGHD5-18*01>3_IGHJ4*01 & V3-4_IGLJ1*01 (Fab, V domains shown)
VH: B1 VH with K100G, T104G
VL: B1 VL
notes: Germline Fab made in E. coli; also called parental; wildtype
As for B7, in [25], the Kd was 4800 nM.

B8: Fab VH5-51_IGHD5-18*01>3_IGHJ4*01 G100K/G104T G24T/S28R/G35V & V3-4_IGLJ1*01 M94R/S96M (Fab, V domains shown)
VH: B1 VH with G24T, S28R, G35V
VL: B1 VL with M94R, S96M
notes: Fab made in E. coli; VH was cloned in Plasmid A (CH1, His6 and Flag tags) and VL in Plasmid E (lambda CL); also called H:KT TRV & L:RM
Turning to B8, the on-rate (kon) in assay [26] was 2.53e+06 M⁻¹ s⁻¹. Further, the dissociation constant Kd in [27] turned out to be 40.3 nM. Besides, in assay [28], the off-rate (koff) worked out at 0.000101 s⁻¹.

B9: Fab VH5-51_IGHD5-18*01>3_IGHJ4*01 G100K/G104T S28R & V3-4_IGLJ1*01 (Fab, V domains shown)
VH: B1 VH with S28R
VL: B1 VL
notes: Fab made in E. coli; VH was cloned in Plasmid A (CH1, His6 and Flag tags) and VL in Plasmid E (lambda CL); also called KT S28R; H:KT S28R & L:wt
Regarding B9, the Kd in [29] was found to be 114 nM. Further, the kon in assay [30] worked out at 740000 M⁻¹ s⁻¹. In addition, the dissociation rate constant (koff) in assay [31] is 8.45e-05 s⁻¹.

Source of the values: US20120316071A1 (published 2012).
